Data from patent US20240158474A1 (SINO BIOLOGICAL, published 2024).

Assays:
HPV52 VLP protein = molecular target: T1, HPV52 VLP protein (human papillomavirus type 52, UniProt Q05138 27-504); experiment: indirect ELISA on coated VLP
T1 construct: Complete VLP protein; no limits of the construct printed, whole entry named; also called P52SHELL
T1 sequence: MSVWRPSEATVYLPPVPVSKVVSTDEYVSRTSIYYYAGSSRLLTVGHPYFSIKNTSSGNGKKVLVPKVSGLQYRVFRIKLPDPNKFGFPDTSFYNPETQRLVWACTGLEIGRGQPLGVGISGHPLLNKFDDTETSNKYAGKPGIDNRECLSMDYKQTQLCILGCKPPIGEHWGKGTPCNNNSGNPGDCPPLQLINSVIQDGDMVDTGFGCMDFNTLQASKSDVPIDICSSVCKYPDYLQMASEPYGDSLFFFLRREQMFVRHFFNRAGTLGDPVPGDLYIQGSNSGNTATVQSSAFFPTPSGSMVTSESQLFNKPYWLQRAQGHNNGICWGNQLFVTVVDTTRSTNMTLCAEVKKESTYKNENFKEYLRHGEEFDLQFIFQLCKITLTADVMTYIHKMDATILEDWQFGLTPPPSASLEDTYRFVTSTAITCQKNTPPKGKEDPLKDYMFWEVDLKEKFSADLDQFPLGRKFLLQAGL

HPV56 VLP protein [1] = molecular target: T2, HPV56 VLP protein (human papillomavirus type 56, UniProt P36743 36-507); experiment: indirect ELISA on coated VLP
T2 construct: Complete VLP protein; no limits of the construct printed, whole entry named; also called HPV56L1
T2 sequence: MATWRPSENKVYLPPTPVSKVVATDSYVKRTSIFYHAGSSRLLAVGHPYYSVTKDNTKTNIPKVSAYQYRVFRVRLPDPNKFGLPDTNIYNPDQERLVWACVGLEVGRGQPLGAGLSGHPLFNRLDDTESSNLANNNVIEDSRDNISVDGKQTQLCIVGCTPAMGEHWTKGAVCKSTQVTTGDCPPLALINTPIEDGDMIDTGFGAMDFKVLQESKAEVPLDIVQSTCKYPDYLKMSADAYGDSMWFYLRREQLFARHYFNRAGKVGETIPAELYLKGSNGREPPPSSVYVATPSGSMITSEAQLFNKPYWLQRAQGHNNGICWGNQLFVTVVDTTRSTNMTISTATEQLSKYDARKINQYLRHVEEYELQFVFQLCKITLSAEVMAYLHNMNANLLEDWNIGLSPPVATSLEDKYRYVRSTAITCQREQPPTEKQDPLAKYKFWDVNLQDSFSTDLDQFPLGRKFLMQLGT

HPV58 VLP protein [2] = molecular target: T3, HPV58 VLP protein (human papillomavirus type 58, UniProt P26535 27-499); experiment: indirect ELISA on coated VLP
T3 construct: Complete VLP protein; no limits of the construct printed, whole entry named; also called P58SHELL
T3 sequence: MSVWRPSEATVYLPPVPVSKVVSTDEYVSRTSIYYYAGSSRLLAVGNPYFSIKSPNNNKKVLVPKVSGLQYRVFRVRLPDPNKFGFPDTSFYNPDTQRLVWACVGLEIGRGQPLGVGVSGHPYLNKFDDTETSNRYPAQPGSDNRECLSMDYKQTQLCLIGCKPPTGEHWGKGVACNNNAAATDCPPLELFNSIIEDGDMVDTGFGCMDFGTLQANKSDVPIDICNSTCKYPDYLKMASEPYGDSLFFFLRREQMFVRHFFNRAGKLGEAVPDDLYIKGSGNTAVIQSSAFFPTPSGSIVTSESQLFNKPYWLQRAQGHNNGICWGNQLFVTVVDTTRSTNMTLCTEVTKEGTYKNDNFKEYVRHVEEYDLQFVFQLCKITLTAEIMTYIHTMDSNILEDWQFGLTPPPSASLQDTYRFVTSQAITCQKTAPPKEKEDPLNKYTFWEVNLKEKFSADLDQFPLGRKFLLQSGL

HPV11 VLP protein [3] = molecular target: T4, HPV11 VLP protein (human papillomavirus type 11; human …, UniProt P04012 1-470; P06416 474-499); experiment: indirect ELISA on coated VLP
T4 construct: range 1-470;range 474-499; Complete VLP protein used as coating protein
T4 sequence: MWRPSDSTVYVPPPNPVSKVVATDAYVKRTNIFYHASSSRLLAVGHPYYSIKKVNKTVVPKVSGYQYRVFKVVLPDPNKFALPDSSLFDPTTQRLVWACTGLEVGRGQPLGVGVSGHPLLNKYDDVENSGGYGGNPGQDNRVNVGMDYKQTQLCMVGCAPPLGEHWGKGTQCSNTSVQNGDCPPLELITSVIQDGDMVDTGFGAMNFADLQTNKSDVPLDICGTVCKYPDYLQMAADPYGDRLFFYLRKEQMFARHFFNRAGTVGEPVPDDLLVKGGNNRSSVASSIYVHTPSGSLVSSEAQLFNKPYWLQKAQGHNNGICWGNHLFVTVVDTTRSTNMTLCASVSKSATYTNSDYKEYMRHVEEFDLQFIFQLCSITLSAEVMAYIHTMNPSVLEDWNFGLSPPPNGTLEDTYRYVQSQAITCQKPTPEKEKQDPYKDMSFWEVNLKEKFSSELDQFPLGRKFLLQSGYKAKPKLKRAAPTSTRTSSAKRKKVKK

HPV56 VLP protein [4] = molecular target: T2, HPV56 VLP protein; experiment: indirect ELISA, VLP coated at 2 µg/mL, antibody 10 ng/mL, HRP goat anti-rabbit Fc
HPV58 VLP protein [5] = molecular target: T3, HPV58 VLP protein; experiment: as above
HPV11 VLP protein [6] = molecular target: T4, HPV11 VLP protein; experiment: as above

B1: monoclonal antibody HPV6-R003 (antibody, V domains shown)
VH: QQQLEESGGGLVKPGGTLTLTCKASGIDLSNYYMCWVRQAPGKGLEWIGCIYTGSGRTYYASWAKGRFTISKASSTTVTLQMTSLTAADTATYFCARDYLGWRASNIWGPGTLVTVSS
VL: ELVMTQTPSSVSAAVGGTVTINCQASQSVYSNNLVWYQQKPGQPPKLLIYGASTLASGVPSRFKGSGSGTQFTLTISDVVCDDAATYYCGGYVSDSTDGTAFGGGTEVVVKG
notes: here built from variable plus constant region so that the signal peptides are left out; In the sandwich ELISA the same antibody is used as coating antibody and, labelled with horseradish peroxidase, as detection antibody; also called anti-HPV6 L1 protein antibody
B1: no binding (tested: antibody 10 ng/mL; coating 2 µg/mL) (HPV52 VLP protein); no binding (tested: antibody 10 ng/mL; coating 2 µg/mL) (HPV56 VLP protein [1]); no binding (tested: antibody 10 ng/mL; coating 2 µg/mL) (HPV58 VLP protein [2]). For the same binder, the binding result (HPV11 VLP protein [3]) was “no binding (tested: antibody 10 ng/mL; coating 2 µg/mL)”, the OD450-blank (HPV56 VLP protein [4]) was 0.042 OD450 and the OD450-blank (HPV58 VLP protein [5]) was 0.044 OD450. For the same binder, the OD450-blank (HPV11 VLP protein [6]) was 0.053 OD450.
